US20230357348A1 (AstraZeneca / MedImmune, published 2023)
Blank lines part the entries; values can stand above or below the binder they belong to. Starred links: 1 amine or outer side, 2 acyl side, 3 side chain; linkers in the order of their positions; H or OH if unused. Non-standard residues stand in square brackets, D forms with d. Groups on a side chain read outwards from the residue. No end group written: not given here. *: point of attachment. C20 diacid = O=C(O)CCCCCCCCCCCCCCCCCCC(=O)*; C18 diacid = O=C(O)CCCCCCCCCCCCCCCCC(=O)*; γGlu = O=C(O)[C@H](CCC(=O)[*:2])N[*:1]; αMeF = C[C@](N)(Cc1ccccc1)C(=O)O; AEEA = NCCOCCOCC(=O)O; Aib = CC(C)(N)C(=O)O

Key:
[1] = target: human GLP-1 receptor (hGLP-1R) (human, UniProt P43220 24-463); test: cell-based or functional assay
[2] = target: human glucagon receptor (hGCGR) (human, UniProt P47871 26-477); test: cell-based or functional assay
Chain of human glucagon receptor (hGCGR) (P47871 26-477): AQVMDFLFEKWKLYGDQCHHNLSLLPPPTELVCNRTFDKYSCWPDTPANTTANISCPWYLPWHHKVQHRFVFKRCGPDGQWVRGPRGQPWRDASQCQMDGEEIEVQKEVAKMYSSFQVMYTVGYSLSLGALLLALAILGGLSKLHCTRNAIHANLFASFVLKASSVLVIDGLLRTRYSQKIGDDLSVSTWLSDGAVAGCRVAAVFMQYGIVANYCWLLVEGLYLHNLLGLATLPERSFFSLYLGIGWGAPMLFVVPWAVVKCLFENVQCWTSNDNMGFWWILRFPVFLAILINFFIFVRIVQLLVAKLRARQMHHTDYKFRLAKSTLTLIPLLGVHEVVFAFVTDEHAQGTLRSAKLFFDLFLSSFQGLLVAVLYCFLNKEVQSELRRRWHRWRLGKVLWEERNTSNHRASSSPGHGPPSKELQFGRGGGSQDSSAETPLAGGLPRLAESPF

- hGLP-1R EC50 (pM) [1]: 19.1 pM
- hGluc-R EC50 (pM) [2]: 32.6 pM
B1: Peptide 143 (peptide)
peptide: H[Aib]QGTFTSDVSK[αMeF]LDSK([AEEA-AEEA-γGlu-C18 diacid])RARDFVQWLLE[Aib]G-OH
modifications: N-terminus assumed
SMILES: CC(C)C[C@H](NC(=O)[C@H](Cc1c[nH]c2ccccc12)NC(=O)[C@H](CCC(N)=O)NC(=O)[C@@H](NC(=O)[C@H](Cc1ccccc1)NC(=O)[C@H](CC(=O)O)NC(=O)[C@H](CCCNC(=N)N)NC(=O)[C@H](C)NC(=O)[C@H](CCCNC(=N)N)NC(=O)[C@H](CCCCNC(=O)COCCOCCNC(=O)COCCOCCNC(=O)CC[C@H](NC(=O)CCCCCCCCCCCCCCCCC(=O)O)C(=O)O)NC(=O)[C@H](CO)NC(=O)[C@H](CC(=O)O)NC(=O)[C@H](CC(C)C)NC(=O)[C@](C)(Cc1ccccc1)NC(=O)[C@H](CCCCN)NC(=O)[C@H](CO)NC(=O)[C@@H](NC(=O)[C@H](CC(=O)O)NC(=O)[C@H](CO)NC(=O)[C@@H](NC(=O)[C@H](Cc1ccccc1)NC(=O)[C@@H](NC(=O)CNC(=O)[C@H](CCC(N)=O)NC(=O)C(C)(C)NC(=O)[C@@H](N)Cc1c[nH]cn1)[C@@H](C)O)[C@@H](C)O)C(C)C)C(C)C)C(=O)N[C@@H](CC(C)C)C(=O)N[C@@H](CCC(=O)O)C(=O)NC(C)(C)C(=O)NCC(=O)O

- hGLP-1R EC50 (pM) [1]: 45.2 pM
- hGluc-R EC50 (pM) [2]: 702 pM
B2: Peptide 144 (peptide)
peptide: H[Aib]QGTFTSDVSK[αMeF]LDSK([γGlu-γGlu-AEEA-AEEA-γGlu-γGlu-C18 diacid])RARDFVRWLLE[Aib]G-OH
modifications: N-terminus assumed
SMILES: CC(C)C[C@H](NC(=O)[C@H](Cc1c[nH]c2ccccc12)NC(=O)[C@H](CCCNC(=N)N)NC(=O)[C@@H](NC(=O)[C@H](Cc1ccccc1)NC(=O)[C@H](CC(=O)O)NC(=O)[C@H](CCCNC(=N)N)NC(=O)[C@H](C)NC(=O)[C@H](CCCNC(=N)N)NC(=O)[C@H](CCCCNC(=O)CC[C@H](NC(=O)CC[C@H](NC(=O)COCCOCCNC(=O)COCCOCCNC(=O)CC[C@H](NC(=O)CC[C@H](NC(=O)CCCCCCCCCCCCCCCCC(=O)O)C(=O)O)C(=O)O)C(=O)O)C(=O)O)NC(=O)[C@H](CO)NC(=O)[C@H](CC(=O)O)NC(=O)[C@H](CC(C)C)NC(=O)[C@](C)(Cc1ccccc1)NC(=O)[C@H](CCCCN)NC(=O)[C@H](CO)NC(=O)[C@@H](NC(=O)[C@H](CC(=O)O)NC(=O)[C@H](CO)NC(=O)[C@@H](NC(=O)[C@H](Cc1ccccc1)NC(=O)[C@@H](NC(=O)CNC(=O)[C@H](CCC(N)=O)NC(=O)C(C)(C)NC(=O)[C@@H](N)Cc1c[nH]cn1)[C@@H](C)O)[C@@H](C)O)C(C)C)C(C)C)C(=O)N[C@@H](CC(C)C)C(=O)N[C@@H](CCC(=O)O)C(=O)NC(C)(C)C(=O)NCC(=O)O

- hGLP-1R EC50 (pM) [1]: 143 pM
- hGluc-R EC50 (pM) [2]: 268 pM
B3: Peptide 137 (peptide)
peptide: H[Aib]QGTFTSDVSK[αMeF]LDSK([γGlu-γGlu-AEEA-AEEA-γGlu-γGlu-C18 diacid])RAQDFVRWLLEG[Aib]-OH
modifications: N-terminus assumed
SMILES: CC(C)C[C@H](NC(=O)[C@H](CC(C)C)NC(=O)[C@H](Cc1c[nH]c2ccccc12)NC(=O)[C@H](CCCNC(=N)N)NC(=O)[C@@H](NC(=O)[C@H](Cc1ccccc1)NC(=O)[C@H](CC(=O)O)NC(=O)[C@H](CCC(N)=O)NC(=O)[C@H](C)NC(=O)[C@H](CCCNC(=N)N)NC(=O)[C@H](CCCCNC(=O)CC[C@H](NC(=O)CC[C@H](NC(=O)COCCOCCNC(=O)COCCOCCNC(=O)CC[C@H](NC(=O)CC[C@H](NC(=O)CCCCCCCCCCCCCCCCC(=O)O)C(=O)O)C(=O)O)C(=O)O)C(=O)O)NC(=O)[C@H](CO)NC(=O)[C@H](CC(=O)O)NC(=O)[C@H](CC(C)C)NC(=O)[C@](C)(Cc1ccccc1)NC(=O)[C@H](CCCCN)NC(=O)[C@H](CO)NC(=O)[C@@H](NC(=O)[C@H](CC(=O)O)NC(=O)[C@H](CO)NC(=O)[C@@H](NC(=O)[C@H](Cc1ccccc1)NC(=O)[C@@H](NC(=O)CNC(=O)[C@H](CCC(N)=O)NC(=O)C(C)(C)NC(=O)[C@@H](N)Cc1c[nH]cn1)[C@@H](C)O)[C@@H](C)O)C(C)C)C(C)C)C(=O)N[C@@H](CCC(=O)O)C(=O)NCC(=O)NC(C)(C)C(=O)O

- hGLP-1R EC50 (pM) [1]: 45.2 pM
- hGluc-R EC50 (pM) [2]: 509 pM
B4: Peptide 136 (peptide)
peptide: H[Aib]QGTFTSDVSK[αMeF]LDSK([γGlu-γGlu-AEEA-AEEA-γGlu-γGlu-C18 diacid])RARDFVRWLLE[Aib]G-OH
modifications: N-terminus assumed
SMILES: CC(C)C[C@H](NC(=O)[C@H](Cc1c[nH]c2ccccc12)NC(=O)[C@H](CCCNC(=N)N)NC(=O)[C@@H](NC(=O)[C@H](Cc1ccccc1)NC(=O)[C@H](CC(=O)O)NC(=O)[C@H](CCCNC(=N)N)NC(=O)[C@H](C)NC(=O)[C@H](CCCNC(=N)N)NC(=O)[C@H](CCCCNC(=O)CC[C@H](NC(=O)CC[C@H](NC(=O)COCCOCCNC(=O)COCCOCCNC(=O)CC[C@H](NC(=O)CC[C@H](NC(=O)CCCCCCCCCCCCCCCCC(=O)O)C(=O)O)C(=O)O)C(=O)O)C(=O)O)NC(=O)[C@H](CO)NC(=O)[C@H](CC(=O)O)NC(=O)[C@H](CC(C)C)NC(=O)[C@](C)(Cc1ccccc1)NC(=O)[C@H](CCCCN)NC(=O)[C@H](CO)NC(=O)[C@@H](NC(=O)[C@H](CC(=O)O)NC(=O)[C@H](CO)NC(=O)[C@@H](NC(=O)[C@H](Cc1ccccc1)NC(=O)[C@@H](NC(=O)CNC(=O)[C@H](CCC(N)=O)NC(=O)C(C)(C)NC(=O)[C@@H](N)Cc1c[nH]cn1)[C@@H](C)O)[C@@H](C)O)C(C)C)C(C)C)C(=O)N[C@@H](CC(C)C)C(=O)N[C@@H](CCC(=O)O)C(=O)NC(C)(C)C(=O)NCC(=O)O

- hGLP-1R EC50 (pM) [1]: 630 pM
- hGluc-R EC50 (pM) [2]: 984 pM
B5: Peptide 139 (peptide)
peptide: H[Aib]QGTFTSDVSK[αMeF]LDSK([γGlu-γGlu-AEEA-AEEA-γGlu-γGlu-C20 diacid])RAQDFVRWLLE[Aib]G-OH

- hGLP-1R EC50 (pM) [1]: 104 pM
- hGluc-R EC50 (pM) [2]: 184 pM
B6: Peptide 138 (peptide)
peptide: H[Aib]QGTFTSDVSK[αMeF]LDSK([γGlu-γGlu-AEEA-AEEA-γGlu-γGlu-C18 diacid])RAQDFVRWLLE[Aib]G-OH
modifications: N-terminus assumed
SMILES: CC(C)C[C@H](NC(=O)[C@H](Cc1c[nH]c2ccccc12)NC(=O)[C@H](CCCNC(=N)N)NC(=O)[C@@H](NC(=O)[C@H](Cc1ccccc1)NC(=O)[C@H](CC(=O)O)NC(=O)[C@H](CCC(N)=O)NC(=O)[C@H](C)NC(=O)[C@H](CCCNC(=N)N)NC(=O)[C@H](CCCCNC(=O)CC[C@H](NC(=O)CC[C@H](NC(=O)COCCOCCNC(=O)COCCOCCNC(=O)CC[C@H](NC(=O)CC[C@H](NC(=O)CCCCCCCCCCCCCCCCC(=O)O)C(=O)O)C(=O)O)C(=O)O)C(=O)O)NC(=O)[C@H](CO)NC(=O)[C@H](CC(=O)O)NC(=O)[C@H](CC(C)C)NC(=O)[C@](C)(Cc1ccccc1)NC(=O)[C@H](CCCCN)NC(=O)[C@H](CO)NC(=O)[C@@H](NC(=O)[C@H](CC(=O)O)NC(=O)[C@H](CO)NC(=O)[C@@H](NC(=O)[C@H](Cc1ccccc1)NC(=O)[C@@H](NC(=O)CNC(=O)[C@H](CCC(N)=O)NC(=O)C(C)(C)NC(=O)[C@@H](N)Cc1c[nH]cn1)[C@@H](C)O)[C@@H](C)O)C(C)C)C(C)C)C(=O)N[C@@H](CC(C)C)C(=O)N[C@@H](CCC(=O)O)C(=O)NC(C)(C)C(=O)NCC(=O)O

- hGLP-1R EC50 (pM) [1]: 264 pM
- hGluc-R EC50 (pM) [2]: 392 pM
B7: Peptide 141 (peptide)
peptide: H[Aib]QGTFTSDVSK[αMeF]LDSK([AEEA-AEEA-γGlu-C18 diacid])RAQDFVAWLLE[Aib]G-OH
modifications: N-terminus assumed
SMILES: CC(C)C[C@H](NC(=O)[C@H](Cc1c[nH]c2ccccc12)NC(=O)[C@H](C)NC(=O)[C@@H](NC(=O)[C@H](Cc1ccccc1)NC(=O)[C@H](CC(=O)O)NC(=O)[C@H](CCC(N)=O)NC(=O)[C@H](C)NC(=O)[C@H](CCCNC(=N)N)NC(=O)[C@H](CCCCNC(=O)COCCOCCNC(=O)COCCOCCNC(=O)CC[C@H](NC(=O)CCCCCCCCCCCCCCCCC(=O)O)C(=O)O)NC(=O)[C@H](CO)NC(=O)[C@H](CC(=O)O)NC(=O)[C@H](CC(C)C)NC(=O)[C@](C)(Cc1ccccc1)NC(=O)[C@H](CCCCN)NC(=O)[C@H](CO)NC(=O)[C@@H](NC(=O)[C@H](CC(=O)O)NC(=O)[C@H](CO)NC(=O)[C@@H](NC(=O)[C@H](Cc1ccccc1)NC(=O)[C@@H](NC(=O)CNC(=O)[C@H](CCC(N)=O)NC(=O)C(C)(C)NC(=O)[C@@H](N)Cc1c[nH]cn1)[C@@H](C)O)[C@@H](C)O)C(C)C)C(C)C)C(=O)N[C@@H](CC(C)C)C(=O)N[C@@H](CCC(=O)O)C(=O)NC(C)(C)C(=O)NCC(=O)O

- hGLP-1R EC50 (pM) [1]: 59.4 pM
- hGluc-R EC50 (pM) [2]: 108 pM
B8: Peptide 142 (peptide)
peptide: H[Aib]QGTFTSDVSK[αMeF]LDSK([AEEA-AEEA-γGlu-C18 diacid])RARDFVAWLLE[Aib]G-OH
modifications: N-terminus assumed
SMILES: CC(C)C[C@H](NC(=O)[C@H](Cc1c[nH]c2ccccc12)NC(=O)[C@H](C)NC(=O)[C@@H](NC(=O)[C@H](Cc1ccccc1)NC(=O)[C@H](CC(=O)O)NC(=O)[C@H](CCCNC(=N)N)NC(=O)[C@H](C)NC(=O)[C@H](CCCNC(=N)N)NC(=O)[C@H](CCCCNC(=O)COCCOCCNC(=O)COCCOCCNC(=O)CC[C@H](NC(=O)CCCCCCCCCCCCCCCCC(=O)O)C(=O)O)NC(=O)[C@H](CO)NC(=O)[C@H](CC(=O)O)NC(=O)[C@H](CC(C)C)NC(=O)[C@](C)(Cc1ccccc1)NC(=O)[C@H](CCCCN)NC(=O)[C@H](CO)NC(=O)[C@@H](NC(=O)[C@H](CC(=O)O)NC(=O)[C@H](CO)NC(=O)[C@@H](NC(=O)[C@H](Cc1ccccc1)NC(=O)[C@@H](NC(=O)CNC(=O)[C@H](CCC(N)=O)NC(=O)C(C)(C)NC(=O)[C@@H](N)Cc1c[nH]cn1)[C@@H](C)O)[C@@H](C)O)C(C)C)C(C)C)C(=O)N[C@@H](CC(C)C)C(=O)N[C@@H](CCC(=O)O)C(=O)NC(C)(C)C(=O)NCC(=O)O
